In publication PMC2779222 (The Journal of Cell Biology, 2009):

How the values were obtained:
[1] = target: ΔN–CEACAM1-3L–YFP (rat) (UniProt P16573); assay: cross-linking
[2] = target: the molecule itself; assay: cross-linking

ΔN–CEACAM1-3L–YFP, sequence (P16573 35-519, stated change not applied): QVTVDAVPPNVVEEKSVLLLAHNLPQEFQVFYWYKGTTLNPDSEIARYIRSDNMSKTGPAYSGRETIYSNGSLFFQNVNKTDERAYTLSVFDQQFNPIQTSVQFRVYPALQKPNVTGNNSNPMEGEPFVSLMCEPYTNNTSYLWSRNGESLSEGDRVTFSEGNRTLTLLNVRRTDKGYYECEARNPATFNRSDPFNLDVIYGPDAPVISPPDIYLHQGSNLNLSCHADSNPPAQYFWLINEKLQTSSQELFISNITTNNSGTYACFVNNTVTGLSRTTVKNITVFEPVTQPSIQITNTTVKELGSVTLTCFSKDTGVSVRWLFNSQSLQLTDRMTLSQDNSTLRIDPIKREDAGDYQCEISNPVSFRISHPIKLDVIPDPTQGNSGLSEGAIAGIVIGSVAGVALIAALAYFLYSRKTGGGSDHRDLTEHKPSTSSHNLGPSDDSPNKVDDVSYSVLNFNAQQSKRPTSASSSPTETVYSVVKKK

| stoichiometry N [1] | Molecule | stoichiometry N [2] |
| --- | --- | --- |
| 2 | ΔN–CEACAM1-3L–YFP (from UniProt P16573 35-519) (domain or fragment) |  |
|  | CEACAM1-4ΔCyto–YFP (domain or fragment, rat, UniProt P16573 35-448, looked up) QVTVDAVPPNVVEEKSVLLLAHNLPQEFQVFYWYKGTTLNPDSEIARYIRSDNMSKTGPAYSGRETIYSNGSLFFQNVNKTDERAYTLSVFDQQFNPIQTSVQFRVYPALQKPNVTGNNSNPMEGEPFVSLMCEPYTNNTSYLWSRNGESLSEGDRVTFSEGNRTLTLLNVRRTDKGYYECEARNPATFNRSDPFNLDVIYGPDAPVISPPDIYLHQGSNLNLSCHADSNPPAQYFWLINEKLQTSSQELFISNITTNNSGTYACFVNNTVTGLSRTTVKNITVFEPVTQPSIQITNTTVKELGSVTLTCFSKDTGVSVRWLFNSQSLQLTDRMTLSQDNSTLRIDPIKREDAGDYQCEISNPVSFRISHPIKLDVIPDPTQGNSGLSEGAIAGIVIGSVAGVALIAALAYFLY | 2 |
